The values that follow are results of earlier work, collected in US5494894A, “Agent for the regulation of the appetite or a sleeping agent” (Erlanson-Albertsson; Charlotte, priority 1986, dated 1996).

In the data set the test system is patients. The conditions noted are these: administered intravenously; cited from earlier work.

B1: cholocystokinin (peptide, UniProt P06307 21-115, looked up)
Cholecystokinin: QPVPPADPAGSGLQRAEEAPRRQLRVSQRTDGESRAHLGALLARYIQQARKAPSGRMSIVKNLQNLDPSHRISDRDYMGWMDFGRRSAEEYEYPS
modifications: Cholecystokinin
notes: hormone which stimulates the secretion of pancreatic enzymes
Regarding B1, the Feeling of satiety entry is “earlier feeling of satiety”.
